Stoichiometry N and cryo-EM structure data for two molecules are collected here from publication PMC9169680 (Science (New York, N.Y.), 2022).

The target in experiment [1] is Tetrahymena thermophila complex III protomer (Tt-CIII) (Tetrahymena thermophila (endogenous)). The experiment is described as follows: cryo-EM structure.
The target in experiment [2] is Tt-CI (Tetrahymena thermophila complex I, in Tt-SC I+III2) (Tetrahymena thermophila, UniProt Q23KE4). The experiment is described as follows: cryo-EM structure. Format: binding. Conditions: 2.6 Å nominal resolution; native bound cofactor of the peripheral arm.
Chain of Tt-CI (Tetrahymena thermophila complex I, in Tt-SC I+III2) (Q23KE4 32-474): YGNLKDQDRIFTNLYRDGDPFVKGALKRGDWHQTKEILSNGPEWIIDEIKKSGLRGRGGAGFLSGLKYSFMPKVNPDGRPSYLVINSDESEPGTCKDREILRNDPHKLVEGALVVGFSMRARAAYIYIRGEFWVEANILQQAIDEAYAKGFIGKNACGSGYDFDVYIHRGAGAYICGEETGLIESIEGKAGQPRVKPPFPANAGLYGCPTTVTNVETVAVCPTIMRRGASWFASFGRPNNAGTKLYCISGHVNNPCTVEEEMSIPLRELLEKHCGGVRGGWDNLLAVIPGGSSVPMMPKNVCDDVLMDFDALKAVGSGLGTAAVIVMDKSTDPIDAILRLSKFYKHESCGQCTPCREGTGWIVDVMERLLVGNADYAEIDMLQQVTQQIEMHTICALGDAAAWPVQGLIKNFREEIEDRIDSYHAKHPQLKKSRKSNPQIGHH
Chain of Tt-CI (Tetrahymena thermophila complex I, in Tt-SC I+III2) (Q951B1 1-442 partner): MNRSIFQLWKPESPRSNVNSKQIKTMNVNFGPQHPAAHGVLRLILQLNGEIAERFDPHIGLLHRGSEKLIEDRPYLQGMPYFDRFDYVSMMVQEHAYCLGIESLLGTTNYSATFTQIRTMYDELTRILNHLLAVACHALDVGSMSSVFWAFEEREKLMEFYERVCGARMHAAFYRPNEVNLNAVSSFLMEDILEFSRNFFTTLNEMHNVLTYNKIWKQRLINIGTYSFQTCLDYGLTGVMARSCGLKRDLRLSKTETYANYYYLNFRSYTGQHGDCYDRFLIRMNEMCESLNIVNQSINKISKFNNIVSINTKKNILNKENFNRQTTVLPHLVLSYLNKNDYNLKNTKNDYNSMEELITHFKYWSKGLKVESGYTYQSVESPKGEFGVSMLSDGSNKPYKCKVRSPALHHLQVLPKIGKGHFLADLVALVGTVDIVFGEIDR
Chain of Tt-CI (Tetrahymena thermophila complex I, in Tt-SC I+III2) (Q951B4 1-162 partner): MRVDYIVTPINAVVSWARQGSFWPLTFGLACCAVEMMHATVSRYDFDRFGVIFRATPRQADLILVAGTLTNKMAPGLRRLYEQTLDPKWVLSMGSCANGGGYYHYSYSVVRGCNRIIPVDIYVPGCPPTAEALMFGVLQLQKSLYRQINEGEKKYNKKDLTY
Chain of Tt-CI (Tetrahymena thermophila complex I, in Tt-SC I+III2) (Q950Z7 1-121 partner): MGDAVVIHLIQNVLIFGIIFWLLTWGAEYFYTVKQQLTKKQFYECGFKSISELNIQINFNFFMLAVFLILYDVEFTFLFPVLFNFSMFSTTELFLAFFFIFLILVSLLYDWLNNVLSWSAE

For the molecule “Tetrahymena thermophila complex III protomer (Tt-CIII)”, the stoichiometry N in experiment [1] was found to be 2.

In the case of `Cc1cc2nc3c(=O)[nH]c(=O)nc-3n(C[C@H](O)[C@H](O)[C@H](O)COP(=O)(O)O)c2cc1C` [flavin mononucleotide], the cryo-EM structure entry in experiment [2] was “relative locations of the flavin mononucleotide (FMN) co-factor and eight ironsulfur clusters”.

As a reminder, the stoichiometry N is a count of units in the complex or per binding partner.
